Experimental data taken from the DeepSol protein solubility set.

Test: soluble on expression in E. coli; label from the status in PepcDB or PDB records

## MMNTNTTNNTVLLFTFNNIQGRGLQTAIEQNLEKPVLLTQGADVNLPSTRDEHYVAIVDSSLPELPEVKQTLSELEHVDATVLVNAEPNLRIESLLTWSNLKGLFYFEDDFDKVMMGLKGILNGENWLSRDILN
  soluble on expression in E. coli: not soluble

## WRKDIVLPKDQAKGVRPYNPKFKDSEYFSRYNALINDERLIEFAKKNNYKITFFPHPDIQQQIVDFEKHDYVEFADYNSSYQMLFNSSNIMITDFSSVAFDFAYEKKPVIYYQYEKSYHFKLDYYDYKKMGFGDVLENHNSLVDKVIYYMKNNSRMEDKYRKRVDNFFAYTDKNNRNRIYNAILE
  soluble on expression in E. coli: not soluble

## GNIEAALFGLIALYAQTKVIDSIIYGGDAGSMATIVTGNPDGIAAKVIYELDRTATVLPAKGAYSRKDTSVLLCTVRKSQFVKLKRIVYEEDPDAFVMVTETSEVLGLGFRAFKDSL
  soluble on expression in E. coli: not soluble

## MSLPRARSTIAMCLALTALLGACGRSPQECMERAMYFESNRSSRDGMVAVGSVVMNRVESGQYPKSVCGVVGQRFQFAPRIMSRRMDSRSLPLVRETARSVLKGERHPMIGDAMFFHTAGHRFPYDNMHYVLVTGGNAFYERRPSALVTQPVPPQPMEGLTGWRGW
  soluble on expression in E. coli: not soluble

## MKEKVFFKTFGCRTNIYDTELLKSYVKDYEIINDENKAQIIVVNSCTVTNGADSGIKSYVNTMQKKGIKVILTGCGAVSKGKELLDKKQVFGVLGASNKDKINEFLGAKTSFYELGNLNFIDKDIVCEYENHTKAFVKIQEGCDFACSYCIIPSVRGKSRSVDEKALLKQVEILGANGYSEIVLTGTNIGSYGLKNGTTLGKLLQKMGQILGIKRIRLGSLEPAQLDESFLEILDEAWLERHLHIALQHTSEKMLRIMRRRSHTDNDLKLFNTIASKGYALGTDFIVAHPGESEELWQEALRNFKEFPLTHIHAFIFSPRNNTHSATMKDVINGTLAKERLNTLKSIVEKNNYEFRKKNQVSLEVLVENQKDGFFEGYDQFFNKIKIKSDKDIAKEWIVISEYEVQEKSNFTNLKGLEHHHHHH
  soluble on expression in E. coli: soluble

## MAKGYWIAQVDVRDSERYKDYVSTAKPAFERFGANFLARGGSVTELEGTARARNVVIEFPSVQHAIDCYNSPEYQAAAKIRQEVADAEMMIVEGI
  soluble on expression in E. coli: soluble

## MGSDKIHHHHHHMSDRLDEVDKRILYNLVRDARNTSAPDIADEVNVSAGTIRNRITHLEAAGIIRGYHAVVSYPQVGGRLTNLYICTSPVPDRDRLSKQVAEIPGVVSVRQLMKGRSNLHVTAVGDDMQELTRIANDLSAIGLDIEEENLLQSEEIRPYHEFGPDDSQDGHTIADFMELSGGAEVVELSVAADAEIAGHTLREANERGVIESDVLVVSIERDDEMLTPRGDTRVRPDDLVTVFCRGGISQETLSVFGKRGSATET
  soluble on expression in E. coli: not soluble

## MGSDKIHHHHHHMGVKSLVPQELIEKIKLISPGTELRKALDDIINANFGALIFLVDDPKKYEDVIQGGFWLDTDFSAEKLYELSKMDGAIVLSEDITKIYYANVHLVPDPTIPTGETGTRHRTAERLAKQTGKVVIAVSRRRNIISLYYKNYKYVVNQVDFLISKVTQAISTLEKYKDNFNKLLSELEVLELENRVTLADVVRTLAKGFELLRIVEEIRPYIVELGEEGRLARMQLRELTEDVDDLLVLLIMDYSSEEVEEETAQNILQDFITRREPSPISISRVLGYDVQQAAQLDDVLVSARGYRLLKTVARIPLSIGYNVVRMFKTLDQISKASVEDLKKVEGIGEKRARAISESISSLKHRKTSE
  soluble on expression in E. coli: not soluble

## INDWSYSIGANFSYVTTKIMDLKGGDTPGQSVGDPLWAYYGYVCDGIFQNEEEIKNHPTQSMGTPVPGDLKYRDLNGDKVVDSKDRQVLGSYFPKINFGLNLSVQYKDFDLSALLQGAADVKSAPVAEIRYAFYNGGKVTEQHLDRWTPENPNATYPRLSMSDSKNRVTSSFWMQDASYAKLRNLQVGYSLPKQLISKYGISRLRVYCSIDNLFMISGFDGVDPEAISGNYYPLTRNYSFGLNVTF
  soluble on expression in E. coli: not soluble

## MGSDKIHHHHHHMRNELPPENAYRILESGPIVLVSTRGADGRANLMTMGFHMMMQHEPPLVGAIIGPWDYSHQALSETGECVLAVPTVDLAETVVDIGNCSGDALDKFGHFGLTPVPAQTVDAPLVRQCWANLECRVVDDGWARRYNLWVLEVQRIWIDTARKETRLIHHQGDGRFSVDGDTLDLGERMTKWRHLMG
  soluble on expression in E. coli: not soluble

## MKLREQINSISGFRYVIDELCIHSSVGRRCLMEQEFLTEASDIEVLLSRVEIAISYQADQRKQKGLDEIAHKLMQLRDIQGTIYSLSRHVVCTDIDFFEIKFLAILSEDIRDLIRFYQLDDLSSPLPDLSHIVSVLDPEEKKIPHFYIYDAYS
  soluble on expression in E. coli: not soluble

## MGSDKIHHHHHHMDSEFANAVELSYECAPLLESLKEYSEKDIACFDVPGHVKNRGVAILNKYLGESLMKMDINSSPTMDNVSAPNGIIKNAQDLLAQAYMADEAFFITNGTTQAIHAMILSVIKPGEKVLLPRNIHKSVINALILCGGIPIFIQPEFDEKLGISLNITLEKVRTEIEKDCNIKALFFLNPTYYGVCADLESIIELCHKNNVLVLVDEAHGAHFPFHLDLPPSAISLGADMVAVSIHKTGGALTQSSALLLNRDNVSFEKVLQSINMLQSTSASYLLMASIDGARVNLVENGEKQLSKALNLSRYAKSKLNKIDGIKVLSTEILKQKGVKFIDETKLCINVKELNLTGFEVYDLLYKNFSIQVELGDSYNILALVSIGTNKSDIDRLVKALSIIAKVYRKESTLNEFNMVQINPIIKLNPREAFYAPKESVEINSCIDRICGESIMAYPPGIPIIAPGELITEEIMEYIIFLKNSNAYLTDVQDKNLDRILVIK
  soluble on expression in E. coli: not soluble

## MAYTLATHTAGVIPAGKLERVDPTTVRQEGPWADPAQAVVQTGPNQYTVYVLAFAFGYQPNPIEVPQGAEIVFKITSPDVIHGFHVEGTNINVEVLPGEVSTVRYTFKRPGEYRIICNQYCGLGHQNMFGTIVVKE
  soluble on expression in E. coli: soluble

## QPTAPKDFSSGFWDFNDGTTQGFGVNPDSPITAINVENANNALKISNLNSKGSNDLSEGNFWANVRISADIWGQSINIYGDTKLTMDVIAPTPVNVSIAAIPQSSTHGWGNPTRAIRVWTNNFVAQTDGTYKATLTISTNDSPNFNTIATDAADSVVTNMILFVGSNSDNISLDNIKFTK
  soluble on expression in E. coli: soluble

## MRIEVVNVSHIFHRGTPLEKKALENVSLVINEGECLLVAGNTGSGKSTLLQIVAGLIEPTSGDVLYDGERKKGYEIRRNIGIAFQYPEDQFFAERVFDEVAFAVKNFYPDRDPVPLVKKAMEFVGLDFDSFKDRVPFFLSGGEKRRVAIASVIVHEPDILILDEPLVGLDREGKTDLLRIVEKWKTLGKTVILISHDIETVINHVDRVVVLEKGKKVFDGTRMEFLEKYDPRFFTSKMLVMRRLVLKGEDPFSMSDDELLERVCNS
  soluble on expression in E. coli: soluble

## MLSCRDLVIRQGGKVLWQNLTFTISAGERVGIHAPSGTGKTTLGRVLAGWQKPTAGDVLLDGSPLPLHQYCPVQLVPQHPELTFNPWRSAGDAVRDAWQPDPETMRRLHVQPEWLTRRPMQLSGGELARIAILRALDPRTRFLIADEMTAQLDPSIQKAIWVYVLEVCRSRSLGMLVISHQSALLDQVCTRHLQVE
  soluble on expression in E. coli: not soluble

## MGSDKIHHHHHHMSPNNFDTDVCIVGGGPTGTLLAVLLGQKGHRVTILEKWPTFYERPRAVTFDHEIARILGYIGIDSENDEAIDYHSDSYDWKNAAGETLLEVDWTSMTDSGWRTRYWFYQPELEKRLRDLALTMDFVDIRCGFTAVGLSQDENSAIIHGIVTDTPENIPADAQREDIRAKYVIGADGANSFVRNSLGLEMNDLGYFFDWLILDLKPTQDIDYGTDHWQLCDPKRPTTIVPGGPGRRRWEFMALPGEDLKELASEESAWNLLEPWDVTPGKAILERSAVYRFQARWAQEWRSGRALIAGDAAHLMPPFAGEGMCAGLRDSLALAWRLDLVLSGKSDDALLDTYGEERREHVHYYIDFSMDLGNVICITDEDEARLRDERMIKELEAQDGVPVNTDVAHLGPGIWDKDSSHGGELAKQGIVEYQGRKARFDDAVGRGWAVLGLNTDPREVLDEDSLVALDAIGAIVESVGDATSAVLDVEGLYTRWLKEAGATFIITRPDFYVYSTAVDAEQLQTQIKQLSDLLHLNSVVGA
  soluble on expression in E. coli: not soluble

## GSVPATLPQLTPTLVSLLEVIEPEVLYAGYDSSVPDSTWRIMTTLNMLGGRQVIAAVKWAKAIPGFRNLHLDDQMTLLQYSWMYLMAFALGWRSYRQSSANLLCFAPDLIINEQRMTLPGMYDQCKHMLYVSSELHRLQVSYEEYLCMKTLLLLSSVPKDGLKSQELFDEIRMTYIKELGKAIVKREGNSSQNWQRFYQLTKLLDSMHEVVENLLNYCFQTFLDKTMSIEFPEMLAEIITNQIPKYSNGNIKKLLFHQK
  soluble on expression in E. coli: soluble

## NAELAKSGIEVKNDVCEHFAYSRQELFHLIRIEEIKTFDELLEKYGKGYGCEVCKPLAGSILASCWGEHILKPQLVKLHDTNDNFLGNIQKDGTYSVIPRMAGGEVTPQALGALANVAAEYNLYTKVTGAQRIGLFGAQKDDLPEIWRKLIDAGFETGQAYAKALRMAKTCVGSTWCRYGVQDSVGLGSYIENRYKGIRTPHKMKFGVSGCTRECAEAQGKDLGIIATDAGWNMYVCGNGGMKPRHADLLASDLDKETLIKYIDRFMMFYIRTAAPLQRTSVWMENMEGGVDYLRAVIVEDKLGINAQLEADVAKLVDEYECEWTATINDASQLTRFAHFINSDKRDDNVVFVQEREQHRPATFTEKHPEAKGDILHVAITEA
  soluble on expression in E. coli: not soluble

## MSLTTENQNPLVLDKNEEISQQKADDIRLQLRQEPEVKRLAQQIDVKNQMELLEYGKEPAVEISKFSDRILGMMKTTSVTDSGTMLTQLGKIMDRFDKNDFDEPKGLMAKIFKRGGSMIEKIFKKYQTLGGEIEKIHVEISKYKDEMTKTNYTLDEMYENNIKYYMELEKYVVAGQMKLEEMQSILPSYEEKAASGNQLAQMQLDTLRNGIQALEERVYDLDMARMVALQTAPQIRLLQRGNAKLIGKINSAFIITIPIFKNGIIQAVTVKRQKLVADSMSELDRRTNEMLKRNAENISSQSVEIARMAGRPSIDIETIESSWNTIVSGMQETKQIEEENKRLREDGARRIAQLQDNIKKAALQQEGHHHHHH
  soluble on expression in E. coli: not soluble

## MTECIFCHQLKANQLLTQSQYFKVVFDIDPIQKGHLLLISKDHYTSLTQLPKEGHYDLIDLQAALVAKLEQHLPISGVTSVSNDKELMDEGTHFHLHLIPRLTNDSFWEGITINQENWDLTPFLKHL
  soluble on expression in E. coli: not soluble

## MAHHHHHHMPSRRFNARRGMIAARRGFFTATSPCRQSRLVPFHELFAPLSSSSLPSSPRRFPVHSVCVDPPLGTLGEPSRSQGAGAEDGSPLSWLRENLQLLEDGRKSLNERRASMPEGSPQWPRYMFPSHCCEYIYDPSNDSKLAFVTSDNYCHLCHEPVEVAIQHCAWWDHVTRLAAIRLIAIYPRRWSPVAVLREANEVLPTAVMVSPRPHPFLSFSEAVDTDDVSLMDMSSCYVFEREAVVRRAELAAILRVLCTAKDADSCDDAEQRISSIIPVLRESLFLSANGTPAASSGERTFRAYISRQISVFLPPMAPEPTTRIQQRCWGRKNLEIMFDLLGVASLQRIAGAPVEAVTKNEKAAVLRQIIYELATVLSEGDAEFAETSCAKINGTSSVDAEVQTRLLAEMALQRLAHELIHLHTMLLMDQAYETYVKLGYPSEGMLEKSGFC
  soluble on expression in E. coli: not soluble

## MTNERVMQLIREAYEKNLTTLDLSENQLTQLPSEITELKNLTTLNLSGNQLTQLPSEIGELKSLTSFDLSVNQLTQLPPEIGELKNLTILNVYRNQLIQLLPEITELKNLTTLDLSLNKLTQLPPEIGELEHHHHHH
  soluble on expression in E. coli: not soluble
